Reference: patent publication US20100029554A1, “Composition and Methods for Treatment of Congestive Heart Failure” (Amylin Pharmaceuticals, Inc., priority 2006, published 2010)
Where no end group is shown, it is not given here.

T1: GLP-1 receptor, endogenous in RINm5f cells (rat (RIN-m5F are called rat pancreas …, UniProt P32301 22-463))
T1 sequence (looked up): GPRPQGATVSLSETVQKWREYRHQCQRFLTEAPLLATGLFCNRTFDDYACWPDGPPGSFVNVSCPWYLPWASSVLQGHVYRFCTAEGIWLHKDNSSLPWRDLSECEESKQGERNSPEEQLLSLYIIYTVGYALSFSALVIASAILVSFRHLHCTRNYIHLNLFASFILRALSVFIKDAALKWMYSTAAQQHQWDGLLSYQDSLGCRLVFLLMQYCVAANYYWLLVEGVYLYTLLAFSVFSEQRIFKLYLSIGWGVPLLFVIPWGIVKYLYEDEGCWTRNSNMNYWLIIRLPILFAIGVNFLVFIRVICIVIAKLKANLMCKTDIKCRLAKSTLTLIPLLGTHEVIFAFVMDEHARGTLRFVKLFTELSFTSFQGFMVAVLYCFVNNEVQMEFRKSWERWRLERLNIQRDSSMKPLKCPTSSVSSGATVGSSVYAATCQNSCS


test system: GLP/GIP/CT cyclase, RIN-m5F cells; test: GLP/GIP/CT Cyclase (RIN) assay; assay type: cell-based, rat; details: cAMP, values without **
Experimental: GLP/GIP/CT Cyclase (RIN) Assay
Five μl of serially diluted peptides are transferred to the 384-well assay plate. Rat pancreas insulinoma cells (RIN-m5F) are detached from a tissue culture flask with Versene and washed once in buffer. Then RIN-m5F cells are resusupended in buffer at 2.5×10^6 cells/ml. Then 10 μl cells (2.5×10^4 cells) are added to all wells of the assay plate and cells are stimulated at room temperature in the dark for 30 minutes. The reaction is terminated with 10 μl of lysis buffer and incubated at room temperature for 4 hrs in the dark. cAMP content is measured using Perkin Elmer AlphaScreen™ cAMP assay kit and results are read on a Perkin Elmer Fusion fluorometer. The assay is completed in 384-well plates at 25 microliter volumes.

Going from “HGEGTFTSDLSKQVQEEAVRLFVEFLKN-NH2 [Cmpd 5035]” to `CC[C@H](C)[C@H](NC(=O)[C@@H]1CCCN1C(=O)[C@@H](NC(=O)CNC(=O)CNC(=O)CNC(=O)[C@H](CO)NC(=O)[C@@H]1CCCN1C(=O)[C@H](CCCNC(=N)N)NC(=O)CNC(=O)[C@H](CCCCN)NC(=O)[C@@H](NC(=O)[C@H](CC(C)C)NC(=O)[C@H](Cc1c[nH]c2ccccc12)NC(=O)[C@H](C)NC(=O)[C@@H](NC(=O)[C@H](Cc1ccccc1)NC(=O)[C@H](CCC(=O)O)NC(=O)[C@H](CCCCN)NC(=O)[C@H](C)NC(=O)[C@H](C)NC(=O)[C@H](CCC(N)=O)NC(=O)CNC(=O)[C@H](CCC(=O)O)NC(=O)[C@H](CC(C)C)NC(=O)[C@H](Cc1ccc(O)cc1)NC(=O)[C@H](CO)NC(=O)[C@H](CO)NC(=O)[C@@H](NC(=O)[C@H](CC(=O)O)NC(=O)[C@H](CO)NC(=O)[C@@H](NC(=O)[C@H](Cc1ccccc1)NC(=O)[C@@H](NC(=O)CNC(=O)[C@H](CCC(=O)O)NC(=O)[C@H](C)NC(=O)[C@@H](N)Cc1c[nH]cn1)[C@@H](C)O)[C@@H](C)O)C(C)C)[C@@H](C)CC)C(C)C)[C@@H](C)CC)C(N)=O` [Cmpd 4888], the EC50 falls from 628 nM to 0.17 nM (3700-fold). The second is the more potent here.

First: HGEGTFTSDLVKILEAEAVRKFIEFLKN-NH2 [Cmpd 5052]
Second: GLP-1-(7-37)-GG-(S)-2,6-diamino-1-(thiazolidin-2-cyano-3-y1)hexan-1-one amide (HAEGTFTSDVSSYLEGQAAKEFIAWLVKGRGGG; C-terminal cyano DPP4 inhibitor moiety, amide) [Cmpd 4845]
The EC50 of the first is 11-fold higher: 4.5 nM for the first, 0.4 nM for the second. The second is the more potent here.

With “HGEGTFTSDVTQQLEEEAVRLFIEWLKQGGPSSGAPPPS-NH2 [Cmpd 5099]” the EC50 was 1.29 nM.

target: T1, GLP-1 receptor, endogenous in RINm5f …; test: cell-based or functional assay; details: not given

Compared with HGEGTFTSDLVKILEAEAVRKFIEFLKNGGPSSGAPPPS-NH2 [Cmpd 5529], HGEGTFTSDLSKQLEEEAVRLFIEWLKNGKPGKGKIRYS [Cmpd 5295] is 4.4-fold lower in “cAMP, GLP-1 CYCLASE (6-23) EC50” value: 0.388 nM for the first, 0.089 nM for the second.

HGEGTFTSDLSKQLEEEAVRLFIEWLKNGGPSKEIIA [Cmpd 5444] and HGEGTFTSDLSKQLEEEAVRLFIEWLKNGGPSKEIAS [Cmpd 5445] are the same in “cAMP, GLP-1 CYCLASE (6-23) EC50” value: 0.09 nM for the first, 0.09 nM for the second.

Compared with HGEGTFTSDLSKQLEEEAVRLFIEWLKNGGPSKAIIS [Cmpd 5446], HGEGTFTSDLSKQLEEEAVRLFIEWLKNGKPKKIRYA [Cmpd 5439] is 1.7-fold higher in “cAMP, GLP-1 CYCLASE (6-23) EC50” value: 0.1 nM for the first, 0.17 nM for the second.

HGEGTFTSDLSKQLEEEAVRLFIEWLKNGKPKAIRYS [Cmpd 5442] and HGEGTFTSDLSKQLEEEAVRLFIEWLKNGKPAKIRYS [Cmpd 5443] are within 1.5-fold of each other in “cAMP, GLP-1 CYCLASE (6-23) EC50” value: 0.1 nM for the first, 0.08 nM for the second.

HGEGTFTSDLSKQLEEEAVRLFIEWLKNGKPKKIAYS [Cmpd 5440] and HGEGTFTSDLSKQLEEEAVRLFIEWLKNGKPKKARYS [Cmpd 5441] are within 1.5-fold of each other in “cAMP, GLP-1 CYCLASE (6-23) EC50” value: 0.13 nM for the first, 0.128 nM for the second.

For HGEGTFTSDLSKQLEEEAVRLFIEWLIKGKP [Cmpd 5227], the “cAMP, GLP-1 CYCLASE (6-23) EC50” value was 0.629 nM.

First: HGEGTFTSDLSKQLEEEAVRLFIEWLKNGKPGGKKIRYS [Cmpd 5451]
Second: HGEGTFTSDVTEYLEEEAVRLFIEWLKQGGPSSGAPPPS-NH2 [Cmpd 5129]
The “cAMP, CYCLASE GLP/GIP/CT (RIN) EC50” value of the first is 5.3-fold lower: 0.205 nM for the first, 1.09 nM for the second.

Going from HGEGTFTSDLSKQVQEEAVRLFVEFLKN-NH2 [Cmpd 5035] to HGEGTFTSDLSKQLEEKAAKEFIEWLIQGGPSKEIIS [Cmpd 5101], the “cAMP, CYCLASE GLP/GIP/CT (RIN) EC50” value falls from 628 nM to 0.863 nM (730-fold).

test system: not listed separately; test: Plasma stability; assay type: in vitro ADME; details: 20 μg/mL in plasma, 37° C., 0-5 hours
Experimental: To assess stability, the compound of interest is spiked into plasma at a concentration of 20 μg/mL. It is incubated at 37° C. for 0, 1, 2 3, 4, 5 hours in triplicate. At each time point, MeOH is added to a 96 well microtiter plate and then sample is added in a ratio of 1 part sample to 4 parts MeOH to quench the digestion reaction. Samples are mixed with multi-channel pipette or liquid handler. The plate is then centrifuged for 10 minutes and placed in an autosampler kept at 10° C. Samples are then injected into a mass spectrometer (API 3000, Applied Biosystems) equipped with an autosampler (Leap HTC Pal) and HPLC pumps (Shimadzu LC-10ADVP).

With `CC[C@H](C)[C@H](NC(=O)[C@H](Cc1ccccc1)NC(=O)[C@H](CCC(=O)O)NC(=O)[C@H](CCCCN)NC(=O)[C@H](C)NC(=O)[C@H](C)NC(=O)[C@H](CCC(N)=O)NC(=O)CNC(=O)[C@H](CCC(=O)O)NC(=O)[C@H](CC(C)C)NC(=O)[C@H](Cc1ccc(O)cc1)NC(=O)[C@H](CO)NC(=O)[C@H](CO)NC(=O)[C@@H](NC(=O)[C@H](CC(=O)O)NC(=O)[C@H](CO)NC(=O)[C@@H](NC(=O)[C@H](Cc1ccccc1)NC(=O)[C@@H](NC(=O)CNC(=O)[C@H](CCC(=O)O)NC(=O)[C@H](C)NC(=O)[C@H](Cc1c[nH]cn1)NC(=O)COCCOCCNC(=O)COCCOCCNC(=O)[C@@H]1CCCN1C(=O)[C@H](C)NC(CCc1ccccc1)C(=O)O)[C@@H](C)O)[C@@H](C)O)C(C)C)C(=O)N[C@@H](C)C(=O)N[C@@H](Cc1c[nH]c2ccccc12)C(=O)N[C@@H](CC(C)C)C(=O)N[C@H](C(=O)N[C@@H](CCCCN)C(=O)NCC(=O)N[C@@H](CCCNC(=N)N)C(N)=O)C(C)C` (stereo partly drawn) [Cmpd 4984, (R,S)-1-[N2-(1-carboxy-3-phenylpropyl)-L-ala]-L-pro-ado-ado-GLP-1-(7-36) amide] the “plasma stability as compared to native GLP-1” value was “increased plasma stability”.
In the case of `CC[C@H](C)[C@H](NC(=O)[C@H](Cc1ccccc1)NC(=O)[C@H](CCC(=O)O)NC(=O)[C@H](CCCCN)NC(=O)[C@H](C)NC(=O)[C@H](C)NC(=O)[C@H](CCC(N)=O)NC(=O)CNC(=O)[C@H](CCC(=O)O)NC(=O)[C@H](CC(C)C)NC(=O)[C@H](Cc1ccc(O)cc1)NC(=O)[C@H](CO)NC(=O)[C@H](CO)NC(=O)[C@@H](NC(=O)[C@H](CC(=O)O)NC(=O)[C@H](CO)NC(=O)[C@@H](NC(=O)[C@H](Cc1ccccc1)NC(=O)[C@@H](NC(=O)CNC(=O)[C@H](CCC(=O)O)NC(=O)[C@H](C)NC(=O)[C@H](Cc1c[nH]cn1)NC(=O)COCCOCCN)[C@@H](C)O)[C@@H](C)O)C(C)C)C(=O)N[C@@H](C)C(=O)N[C@@H](Cc1c[nH]c2ccccc12)C(=O)N[C@@H](CC(C)C)C(=O)N[C@H](C(=O)N[C@@H](CCCCN)C(=O)NCC(=O)N[C@@H](CCCNC(=N)N)C(N)=O)C(C)C` [Cmpd 4992], the “plasma stability as compared to native GLP-1” value is reported as “increased plasma stability”.
For `CC[C@H](C)[C@H](NC(=O)[C@H](Cc1ccccc1)NC(=O)[C@H](CCC(=O)O)NC(=O)[C@H](CCCCN)NC(=O)[C@H](C)NC(=O)[C@H](C)NC(=O)[C@H](CCC(N)=O)NC(=O)CNC(=O)[C@H](CCC(=O)O)NC(=O)[C@H](CC(C)C)NC(=O)[C@H](Cc1ccc(O)cc1)NC(=O)[C@H](CO)NC(=O)[C@H](CO)NC(=O)[C@@H](NC(=O)[C@H](CC(=O)O)NC(=O)[C@H](CO)NC(=O)[C@@H](NC(=O)[C@H](Cc1ccccc1)NC(=O)[C@@H](NC(=O)CNC(=O)[C@H](CCC(=O)O)NC(=O)[C@H](C)NC(=O)[C@H](Cc1c[nH]cn1)NC(=O)COCCOCCNC(=O)[C@@H]1CCCN1C(=O)[C@H](C)NC(CCc1ccccc1)C(=O)O)[C@@H](C)O)[C@@H](C)O)C(C)C)C(=O)N[C@@H](C)C(=O)N[C@@H](Cc1c[nH]c2ccccc12)C(=O)N[C@@H](CC(C)C)C(=O)N[C@H](C(=O)N[C@@H](CCCCN)C(=O)NCC(=O)N[C@@H](CCCNC(=N)N)C(N)=O)C(C)C` (stereo partly drawn) [Cmpd 4983, (R,S)-1-[N2-(1-carboxy-3-phenylpropyl)-L-ala]-L-pro-ado-GLP-1-(7-36) amide], the “plasma stability as compared to native GLP-1” value was “increased plasma stability”.
For “HGEGTFTSDVTQQLEEEAVRLFIEWLKQGGPSSGAPPPS-NH2 [Cmpd 5099]”, the “plasma stability as compared to native GLP-1” value was “increased plasma stability”.

same assay, conditions: second, narrower list of b152; 20 μg/mL in plasma, 37° C., 0-5 hours

In the case of `CC[C@H](C)[C@H](NC(=O)[C@H](Cc1ccccc1)NC(=O)[C@H](CCC(=O)O)NC(=O)[C@H](CCCCN)NC(=O)[C@H](C)NC(=O)[C@H](C)NC(=O)[C@H](CCC(N)=O)NC(=O)CNC(=O)[C@H](CCC(=O)O)NC(=O)[C@H](CC(C)C)NC(=O)[C@H](Cc1ccc(O)cc1)NC(=O)[C@H](CO)NC(=O)[C@H](CO)NC(=O)[C@@H](NC(=O)[C@H](CC(=O)O)NC(=O)[C@H](CO)NC(=O)[C@@H](NC(=O)[C@H](Cc1ccccc1)NC(=O)[C@@H](NC(=O)CNC(=O)[C@H](CCC(=O)O)NC(=O)[C@H](C)NC(=O)[C@H](Cc1c[nH]cn1)NC(=O)COCCOCCN)[C@@H](C)O)[C@@H](C)O)C(C)C)C(=O)N[C@@H](C)C(=O)N[C@@H](Cc1c[nH]c2ccccc12)C(=O)N[C@@H](CC(C)C)C(=O)N[C@H](C(=O)N[C@@H](CCCCN)C(=O)NCC(=O)N[C@@H](CCCNC(=N)N)C(N)=O)C(C)C` [Cmpd 4992], the “plasma stability as compared to native GLP-1” value is reported as “increased plasma stability”.
For `CC[C@H](C)[C@H](NC(=O)[C@H](Cc1ccccc1)NC(=O)[C@H](CCC(=O)O)NC(=O)[C@H](CCCCN)NC(=O)[C@H](C)NC(=O)[C@H](C)NC(=O)[C@H](CCC(N)=O)NC(=O)CNC(=O)[C@H](CCC(=O)O)NC(=O)[C@H](CC(C)C)NC(=O)[C@H](Cc1ccc(O)cc1)NC(=O)[C@H](CO)NC(=O)[C@H](CO)NC(=O)[C@@H](NC(=O)[C@H](CC(=O)O)NC(=O)[C@H](CO)NC(=O)[C@@H](NC(=O)[C@H](Cc1ccccc1)NC(=O)[C@@H](NC(=O)CNC(=O)[C@H](CCC(=O)O)NC(=O)[C@H](C)NC(=O)[C@H](Cc1c[nH]cn1)NC(=O)COCCOCCNC(=O)[C@@H]1CCCN1C(=O)[C@H](C)NC(CCc1ccccc1)C(=O)O)[C@@H](C)O)[C@@H](C)O)C(C)C)C(=O)N[C@@H](C)C(=O)N[C@@H](Cc1c[nH]c2ccccc12)C(=O)N[C@@H](CC(C)C)C(=O)N[C@H](C(=O)N[C@@H](CCCCN)C(=O)NCC(=O)N[C@@H](CCCNC(=N)N)C(N)=O)C(C)C` (stereo partly drawn) [Cmpd 4983, (R,S)-1-[N2-(1-carboxy-3-phenylpropyl)-L-ala]-L-pro-ado-GLP-1-(7-36) amide], the “plasma stability as compared to native GLP-1” value was “increased plasma stability”.
For “HGEGTFTSDVTQQLEEEAVRLFIEWLKQGGPSSGAPPPS-NH2 [Cmpd 5099]”, the “plasma stability as compared to native GLP-1” value was “increased plasma stability”.
